To fix the notation:
B1: target 3 G3A,A5U (mixed)
RNA 1: CACCCGUGCAAAAUUGCAGGGGUCUAAAACGACCUGAAUAUUUCAGAUCAAA
RNA 2: GGGAAUGGAUCCACAUCUACGAAUUCGUUUUUGAUCUGAAAUAUUCUGAUCUGCAGAUCGGAAGAGCACACGU
B2: target 3 insA 3' of 8,insG 3' of 7 (mixed)
RNA 1: CACCCGUGCAAAAUUGCAGGGGUCUAAAACGACCUGAAUAUUUCAGAUCAAA
RNA 2: GGGAAUGGAUCCACAUCUACGAAUUCGUUUUUGAUCUGAAAUAUAUGCAGGUCUGCAGAUCGGAAGAGCACACGU
B3: target 3 insG 3' of 8 (mixed)
RNA 1: CACCCGUGCAAAAUUGCAGGGGUCUAAAACGACCUGAAUAUUUCAGAUCAAA
RNA 2: GGGAAUGGAUCCACAUCUACGAAUUCGUUUUUGAUCUGAAAUAUGUCAGGUCUGCAGAUCGGAAGAGCACACGU
B4: target 3 C1G,G4A (mixed)
RNA 1: CACCCGUGCAAAAUUGCAGGGGUCUAAAACGACCUGAAUAUUUCAGAUCAAA
RNA 2: GGGAAUGGAUCCACAUCUACGAAUUCGUUUUUGAUCUGAAAUAUUCAAGUGUGCAGAUCGGAAGAGCACACGU
B5: target 3 insC 3' of 7,insG 3' of 6 (mixed)
RNA 1: CACCCGUGCAAAAUUGCAGGGGUCUAAAACGACCUGAAUAUUUCAGAUCAAA
RNA 2: GGGAAUGGAUCCACAUCUACGAAUUCGUUUUUGAUCUGAAAUAUUCCGAGGUCUGCAGAUCGGAAGAGCACACGU
B6: target 3 insA 3' of 4,insG 3' of 1 (mixed)
RNA 1: CACCCGUGCAAAAUUGCAGGGGUCUAAAACGACCUGAAUAUUUCAGAUCAAA
RNA 2: GGGAAUGGAUCCACAUCUACGAAUUCGUUUUUGAUCUGAAAUAUUCAGAGUCGUGCAGAUCGGAAGAGCACACGU
B7: target 3 insA 3' of 4,insU 3' of 1 (mixed)
RNA 1: CACCCGUGCAAAAUUGCAGGGGUCUAAAACGACCUGAAUAUUUCAGAUCAAA
RNA 2: GGGAAUGGAUCCACAUCUACGAAUUCGUUUUUGAUCUGAAAUAUUCAGAGUCUUGCAGAUCGGAAGAGCACACGU
B8: target 3 insA 3' of 22,insA 3' of 14 (mixed)
RNA 1: CACCCGUGCAAAAUUGCAGGGGUCUAAAACGACCUGAAUAUUUCAGAUCAAA
RNA 2: GGGAAUGGAUCCACAUCUACGAAUUCGUUUAUUGAUCUGAAAAUAUUCAGGUCUGCAGAUCGGAAGAGCACACGU
B9: target 3 insA 3' of 4,insC 3' of 3 (mixed)
RNA 1: CACCCGUGCAAAAUUGCAGGGGUCUAAAACGACCUGAAUAUUUCAGAUCAAA
RNA 2: GGGAAUGGAUCCACAUCUACGAAUUCGUUUUUGAUCUGAAAUAUUCAGAGCUCUGCAGAUCGGAAGAGCACACGU
B10: target 3 del1,del5 (mixed)
RNA 1: CACCCGUGCAAAAUUGCAGGGGUCUAAAACGACCUGAAUAUUUCAGAUCAAA
RNA 2: GGGAAUGGAUCCACAUCUACGAAUUCGUUUUUGAUCUGAAAUAUUCGGUUGCAGAUCGGAAGAGCACACGU
B11: target 3 C6U,A12G (mixed)
RNA 1: CACCCGUGCAAAAUUGCAGGGGUCUAAAACGACCUGAAUAUUUCAGAUCAAA
RNA 2: GGGAAUGGAUCCACAUCUACGAAUUCGUUUUUGAUCUGAGAUAUUUAGGUCUGCAGAUCGGAAGAGCACACGU
B12: target 3 G4A,U21A (mixed)
RNA 1: CACCCGUGCAAAAUUGCAGGGGUCUAAAACGACCUGAAUAUUUCAGAUCAAA
RNA 2: GGGAAUGGAUCCACAUCUACGAAUUCGUUUAUGAUCUGAAAUAUUCAAGUCUGCAGAUCGGAAGAGCACACGU
B13: target 3 insG 3' of 7,insC 3' of 5 (mixed)
RNA 1: CACCCGUGCAAAAUUGCAGGGGUCUAAAACGACCUGAAUAUUUCAGAUCAAA
RNA 2: GGGAAUGGAUCCACAUCUACGAAUUCGUUUUUGAUCUGAAAUAUUGCACGGUCUGCAGAUCGGAAGAGCACACGU
B14: target 3 insA 3' of 22,insA 3' of 4 (mixed)
RNA 1: CACCCGUGCAAAAUUGCAGGGGUCUAAAACGACCUGAAUAUUUCAGAUCAAA
RNA 2: GGGAAUGGAUCCACAUCUACGAAUUCGUUUAUUGAUCUGAAAUAUUCAGAGUCUGCAGAUCGGAAGAGCACACGU
B15: target 3 insU 3' of 5,insG 3' of 5 (mixed)
RNA 1: CACCCGUGCAAAAUUGCAGGGGUCUAAAACGACCUGAAUAUUUCAGAUCAAA
RNA 2: GGGAAUGGAUCCACAUCUACGAAUUCGUUUUUGAUCUGAAAUAUUCAUGGGUCUGCAGAUCGGAAGAGCACACGU
B16: target 3 insG 3' of 6 (mixed)
RNA 1: CACCCGUGCAAAAUUGCAGGGGUCUAAAACGACCUGAAUAUUUCAGAUCAAA
RNA 2: GGGAAUGGAUCCACAUCUACGAAUUCGUUUUUGAUCUGAAAUAUUCGAGGUCUGCAGAUCGGAAGAGCACACGU
B17: target 3 G3C,U22C (mixed)
RNA 1: CACCCGUGCAAAAUUGCAGGGGUCUAAAACGACCUGAAUAUUUCAGAUCAAA
RNA 2: GGGAAUGGAUCCACAUCUACGAAUUCGUUCUUGAUCUGAAAUAUUCAGCUCUGCAGAUCGGAAGAGCACACGU
B18: target 3 U2A,G3U (mixed)
RNA 1: CACCCGUGCAAAAUUGCAGGGGUCUAAAACGACCUGAAUAUUUCAGAUCAAA
RNA 2: GGGAAUGGAUCCACAUCUACGAAUUCGUUUUUGAUCUGAAAUAUUCAGUACUGCAGAUCGGAAGAGCACACGU
B19: target 3 C1A,U2G (mixed)
RNA 1: CACCCGUGCAAAAUUGCAGGGGUCUAAAACGACCUGAAUAUUUCAGAUCAAA
RNA 2: GGGAAUGGAUCCACAUCUACGAAUUCGUUUUUGAUCUGAAAUAUUCAGGGAUGCAGAUCGGAAGAGCACACGU
B20: target 3 insU 3' of 6,insG 3' of 2 (mixed)
RNA 1: CACCCGUGCAAAAUUGCAGGGGUCUAAAACGACCUGAAUAUUUCAGAUCAAA
RNA 2: GGGAAUGGAUCCACAUCUACGAAUUCGUUUUUGAUCUGAAAUAUUCUAGGUGCUGCAGAUCGGAAGAGCACACGU
B21: target 3 U2G,G14U (mixed)
RNA 1: CACCCGUGCAAAAUUGCAGGGGUCUAAAACGACCUGAAUAUUUCAGAUCAAA
RNA 2: GGGAAUGGAUCCACAUCUACGAAUUCGUUUUUGAUCUUAAAUAUUCAGGGCUGCAGAUCGGAAGAGCACACGU
B22: target 3 insU 3' of 5,insU 3' of 3 (mixed)
RNA 1: CACCCGUGCAAAAUUGCAGGGGUCUAAAACGACCUGAAUAUUUCAGAUCAAA
RNA 2: GGGAAUGGAUCCACAUCUACGAAUUCGUUUUUGAUCUGAAAUAUUCAUGGUUCUGCAGAUCGGAAGAGCACACGU
B23: target 3 insA 3' of 4,insA 3' of 1 (mixed)
RNA 1: CACCCGUGCAAAAUUGCAGGGGUCUAAAACGACCUGAAUAUUUCAGAUCAAA
RNA 2: GGGAAUGGAUCCACAUCUACGAAUUCGUUUUUGAUCUGAAAUAUUCAGAGUCAUGCAGAUCGGAAGAGCACACGU
B24: target 3 A5U,U7G (mixed)
RNA 1: CACCCGUGCAAAAUUGCAGGGGUCUAAAACGACCUGAAUAUUUCAGAUCAAA
RNA 2: GGGAAUGGAUCCACAUCUACGAAUUCGUUUUUGAUCUGAAAUAUGCUGGUCUGCAGAUCGGAAGAGCACACGU
B25: target 3 U7G,U22C (mixed)
RNA 1: CACCCGUGCAAAAUUGCAGGGGUCUAAAACGACCUGAAUAUUUCAGAUCAAA
RNA 2: GGGAAUGGAUCCACAUCUACGAAUUCGUUCUUGAUCUGAAAUAUGCAGGUCUGCAGAUCGGAAGAGCACACGU
B26: target 1 insG 3' of 22,insU 3' of 7 (mixed)
RNA 1: CACCCGUGCAAAAAUGCAGGGGUCUAAAACUGAGCGGAUAACCUCUCUAUGG
RNA 2: GGGAAUGGAUCCACAUCUACGAAUUCGUACGCAUAGAGAGGUUAUCUCGCUCACCGAGAUCGGAAGAGCACACGU
B27: target 1 insC 3' of 13,insU 3' of 5 (mixed)
RNA 1: CACCCGUGCAAAAAUGCAGGGGUCUAAAACUGAGCGGAUAACCUCUCUAUGG
RNA 2: GGGAAUGGAUCCACAUCUACGAAUUCGUACCAUAGAGAGCGUUAUCCGUCUCACCGAGAUCGGAAGAGCACACGU

This data set concerns the target T1, EsCas13d, nuclease-dead (Eubacterium siraeum, UniProt B0MS50, R295A;H300A;R849A;H854A).
T1 sequence: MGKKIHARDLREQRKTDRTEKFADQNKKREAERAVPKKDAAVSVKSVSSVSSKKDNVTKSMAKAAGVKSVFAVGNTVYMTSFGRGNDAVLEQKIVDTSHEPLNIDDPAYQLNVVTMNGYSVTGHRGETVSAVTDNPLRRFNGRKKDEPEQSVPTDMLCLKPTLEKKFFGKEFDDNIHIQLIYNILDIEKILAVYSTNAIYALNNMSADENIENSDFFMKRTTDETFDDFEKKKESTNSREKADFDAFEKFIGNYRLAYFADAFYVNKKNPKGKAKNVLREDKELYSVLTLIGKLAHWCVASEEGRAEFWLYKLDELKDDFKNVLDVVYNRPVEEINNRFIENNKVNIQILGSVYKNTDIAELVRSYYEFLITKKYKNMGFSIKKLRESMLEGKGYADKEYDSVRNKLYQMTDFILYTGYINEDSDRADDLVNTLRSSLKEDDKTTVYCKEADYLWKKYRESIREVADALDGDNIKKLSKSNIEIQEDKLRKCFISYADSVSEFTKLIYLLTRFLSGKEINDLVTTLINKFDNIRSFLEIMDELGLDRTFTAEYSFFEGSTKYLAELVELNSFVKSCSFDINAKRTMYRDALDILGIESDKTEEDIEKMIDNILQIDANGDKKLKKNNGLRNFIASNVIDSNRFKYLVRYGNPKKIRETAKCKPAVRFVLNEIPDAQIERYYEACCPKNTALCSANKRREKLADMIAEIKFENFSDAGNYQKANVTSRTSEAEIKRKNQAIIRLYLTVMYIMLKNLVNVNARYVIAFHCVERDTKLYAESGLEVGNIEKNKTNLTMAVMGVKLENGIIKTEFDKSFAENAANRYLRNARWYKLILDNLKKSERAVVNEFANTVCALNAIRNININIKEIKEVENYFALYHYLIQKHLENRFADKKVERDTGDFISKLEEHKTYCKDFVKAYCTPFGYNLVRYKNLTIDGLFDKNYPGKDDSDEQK
Kind of data set: crRNA (strand 1, pre-loaded); Mg2+; 40 mM Tris-HCl pH 7.5, 150 mM NaCl, 6 mM MgCl2, 1 mM DTT, 0.1% Tween-20, 0.2 mg/ml BSA; 25 C; 10 min per concentration, then washed. The conditions noted are these: tags: His6-TwinStrep-SUMO cleaved; N-terminal SNAP kept (SNAP-Surface 488); label: 3' end held by stalled T7 RNA polymerase.
Molecule B1 registered a Kd of 61.5 ± 8.5 nM.

Turning to B2, the Kd is 72.5 ± 12 nM.

B3 showed an equilibrium dissociation constant (Kd) of 52.5 ± 11.5 nM.

As for B4, the affinity, expressed as Kd, was 15.9 ± 1.8 nM.

On to B5, for which the Kd was 63 ± 6 nM.

B6 came in with a Kd of 42 ± 13.5 nM. Against the preceding molecule, the Kd is about 1.5-fold lower.

Take B7: binding was put at a Kd of 70 ± 32 nM.

B8 yielded a Kd of 94 ± 36 nM.

For B9, the dissociation constant Kd was 79.5 ± 24.5 nM.

Consider B10, for which binding was characterised by a dissociation constant (Kd) of 14 ± 2.2 nM.

Molecule B11 showed an equilibrium dissociation constant (Kd) of 33 ± 5 nM.

Regarding B12, the dissociation constant (Kd) amounted to 35.1 ± 3.15 nM.

Molecule B13 yielded an equilibrium dissociation constant (Kd) of 24.4 ± 2.85 nM.

In turn, B14 had a Kd of 49 ± 10 nM.

B15 yielded a dissociation constant Kd of 4.74 ± 0.56 nM.

Molecule B16 yielded a dissociation constant (Kd) of 8.45 ± 0.75 nM. Against the preceding molecule, the Kd is about 1.8-fold higher.

Turning to B17, the Kd was found to be 28 ± 4 nM.

In turn, B18 showed a dissociation constant Kd of 68 ± 14.5 nM.

Turning to B19, binding was characterised by a dissociation constant (Kd) of 73.5 ± 22 nM.

Molecule B20 yielded a dissociation constant Kd of 28 ± 5 nM.

In the case of B21, the Kd was 73.5 ± 13.5 nM.

As for B22, binding was characterised by a dissociation constant (Kd) of 4.35 ± 0.375 nM.

With B23, the affinity, expressed as Kd, was 50.5 ± 23 nM.

In the case of B24, binding was characterised by a dissociation constant (Kd) of 60.5 ± 7.5 nM.

Consider B25, for which the affinity, expressed as Kd, was 65 ± 26 nM.

As to B26, the affinity, expressed as Kd, was 26.5 ± 1.1 nM.

In turn, B27 registered a Kd of 8.1 ± 0.8 nM. This Kd is about 3.3-fold lower than that of the molecule before.

Usually Kd stands for the equilibrium constant for the complex coming apart.

The values are drawn from publication PMC10786891, “Massively parallel profiling of RNA-targeting CRISPR-Cas13d”.
